Reference: patent publication US20240025971A1 (ATRECA, published 2024)
Residue numbers refer to the chain shown, from its start.

B1: AB-010020 (antibody, V domains shown)
VH: QMQLVQSGPEVKKPGTSVKVSCKASGFTFTSSAVQWVRQARGQRLEWIGWIVVGSGNTNYAQKFQERVTITRDMSTSTAYMELSSLRSEDTAVYYCAAPACSSTSCYDGFDIWGQGTMVTVSS
VL: not shown
notes: human IgG1
B2: AB-010021 (antibody, V domains shown)
VH: B1 VH with P99V, A100Y, S103G, T104G, Y107L, G109A
VL: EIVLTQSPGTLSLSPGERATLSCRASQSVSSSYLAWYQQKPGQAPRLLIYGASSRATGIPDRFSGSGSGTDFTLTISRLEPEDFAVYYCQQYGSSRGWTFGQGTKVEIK
notes: human IgG1; also called AB-0010021
B3: AB-009271 (antibody, V domains shown)
VH: EVQLVESGGGLIQPGGSLRLSCAASGFIVSSNYMSWVRQAPGKGLEWVSVIYSGGSTYYADSVKGRFTISRDNSKNTLYLQMNSLRAEDTAVYYCARDYGDFYFDYWGQGTLVTVSS
VL: EIVMTQSPATLSVSPGERATLSCRASQSVSSNLAWYQQKPGQAPRLLIYGASTRATGIPARFSGSGSGTEFTLTISSLQSEDFAVYYCQQYYNWPRTFGQGTKVEIK
notes: human IgG1
B4: AB-009613 (antibody, V domains shown)
VH: B3 VH with I28T
VL: not shown
notes: human IgG1
B5: AB-009610 (antibody, V domains shown)
VH: QVQLVQSGAEVKKPGSSVKVSCKASGGTFSNYAISWVRQAPGQGLEWMGRIIPILGIANYAQKFQGRVTITADKSTSTAYMELSSLRSEDTAVYYCATTPYYYDSSGYYLDYWGQGTLVTVSS
VL: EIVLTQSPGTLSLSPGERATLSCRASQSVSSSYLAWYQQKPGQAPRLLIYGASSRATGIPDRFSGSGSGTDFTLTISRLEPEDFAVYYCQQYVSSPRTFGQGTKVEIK
notes: human IgG1

Tests used:
Assay in all cases: cell-based or functional assay
[1] = target: SARS-CoV-2 Delta-plus (B.1.617.2.1) full-length Spike protein (SARS-CoV-2, UniProt P0DTC2 14-1273)
[2] = target: SARS-CoV-2 Beta (B.1.351) full-length Spike protein (SARS-CoV-2, UniProt P0DTC2 14-1273)
[3] = target: SARS-CoV-2 Epsilon (B.1.427/9) full-length Spike protein (SARS-CoV-2, UniProt P0DTC2 14-1273)
[4] = target: SARS-CoV-2 Gamma (P.1.B.1.1.28) full-length Spike protein (SARS-CoV-2, UniProt P0DTC2 14-1273)
[5] = target: SARS-CoV-2 Delta (B.1.617.2) full-length Spike protein (SARS-CoV-2, UniProt P0DTC2 14-1273)
[6] = target: SARS-CoV-2 Wuhan D614G full-length Spike protein (SARS-CoV-2, UniProt P0DTC2 14-1273)
[7] = target: SARS-CoV-2 Alpha (B.1.1.7) full-length Spike protein (SARS-CoV-2, UniProt P0DTC2 14-1273)

Binder | Pseudovirus Neutralization [1] [µg/mL] | Pseudovirus Neutralization [2] [µg/mL] | Pseudovirus Neutralization [3] [µg/mL] | Pseudovirus Neutralization [4] [µg/mL] | Pseudovirus Neutralization [5] [µg/mL] | Pseudovirus Neutralization [6] [µg/mL] | Pseudovirus Neutralization [7] [µg/mL]
B1 | 0.001 | 0.018 | 0.003 | 0.0114 | 0.003 | 0.003 | 0.013
B2 | 0.078 | 8.27 | 0.629 | 5.39 | 0.574 | 0.7 | 2.69
B3 | > 50 | > 50 | 0.028 | > 50 | 0.012 | 0.036 | 0.275
B4 | > 50 | > 50 | 1.16 | > 50 | 0.101 | 0.83 | 7.23
B5 | > 50 | > 50 | > 50 | > 50 | > 50 | 2.21 | 2.84
